Our source for the neutralization of authentic SARS-CoV-2 in Vero-E6 cells, EC50 and Kd values is article PMC7319273.

A value given as a limit tells only on which side of the number the result lay.

Test [1] concerns the target SARS-CoV-2 Spike protein extracellular domain (S-ECD), as used in ELISA and BLI (SARS-CoV-2) (UniProt P0DTC2).
The target is the same in test [2]. As to the kind of experiment: BLI. A general note: Biolayer interferometry detects binding as a change in optical thickness at a sensor tip.

4A8 (human monoclonal antibody), sequence (VH): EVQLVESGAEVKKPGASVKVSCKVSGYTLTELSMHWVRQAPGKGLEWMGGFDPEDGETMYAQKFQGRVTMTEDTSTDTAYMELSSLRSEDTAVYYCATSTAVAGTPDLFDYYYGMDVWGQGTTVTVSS
4A8 (human monoclonal antibody), sequence (VL): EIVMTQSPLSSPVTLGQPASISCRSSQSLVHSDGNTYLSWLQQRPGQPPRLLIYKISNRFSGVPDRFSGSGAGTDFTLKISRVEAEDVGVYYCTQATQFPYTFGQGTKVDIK

In turn, 4A8 (human monoclonal antibody) returned a neutralization of authentic SARS-CoV-2 in Vero-E6 cells, EC50 in test [1] of 0.61 µg/mL. In test [2], this substance registered a dissociation constant (Kd) of less than 2.14 nM.

Usually Kd stands for the equilibrium constant for the complex coming apart.
